From doi:10.1101/2024.12.03.626679, “Structure of the SMYD2-PARP1 Complex Reveals Both Productive and Allosteric Modes of Peptide Binding” (bioRxiv, 2024) come the findings set out here.

Assay [1] concerns the target SMYD2-F184A (human) (UniProt Q9NRG4). As to the kind of experiment: ELISA; inhibition: SMYD2 proteins pre-incubated with varying concentrations of the PARP1 peptide, then added to wells coated with PARP1(518-1014), H3 or H4; four-parameter logistic fit. In general terms: In an ELISA, binding on a coated surface is turned into a signal by an enzyme label.
Assay [2] shares this target. As to the kind of experiment: ITC; NanoITC SV, 27°C, 25 mM Tris pH 7.5, 50 mM NaCl; 40 μM SMYD2 in the cell, 631 μM PARP1 peptide in the syringe, 16 injections of 15 μL; one-site, two-site and binding polynomial models. On the technique in general: Isothermal titration calorimetry measures the heat released or taken up as one component is titrated into another.

Chain of SMYD2-F184A (human) (Q9NRG4 whole entry F184A): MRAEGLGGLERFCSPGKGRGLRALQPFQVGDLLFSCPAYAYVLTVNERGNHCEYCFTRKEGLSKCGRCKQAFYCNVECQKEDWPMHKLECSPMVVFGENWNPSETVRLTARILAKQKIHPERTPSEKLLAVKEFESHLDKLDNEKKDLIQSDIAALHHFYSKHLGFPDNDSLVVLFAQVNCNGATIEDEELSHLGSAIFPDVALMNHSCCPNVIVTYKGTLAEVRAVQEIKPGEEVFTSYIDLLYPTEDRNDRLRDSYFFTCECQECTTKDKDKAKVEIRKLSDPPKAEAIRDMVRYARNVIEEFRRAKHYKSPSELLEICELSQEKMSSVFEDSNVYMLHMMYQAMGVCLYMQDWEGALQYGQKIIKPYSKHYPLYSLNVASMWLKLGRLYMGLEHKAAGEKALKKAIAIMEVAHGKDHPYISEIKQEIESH

Usually IC50 stands for the concentration needed to halve the response being measured. One may read the stoichiometry N as a count of units in the complex or per binding partner. As for “PARP1 peptide (13-residue synthetic peptide, human PARP1 residues 522-534)”, in the assay with SMYD2-F184A (human) [1], the IC50 is 153 nM. This substance also returned a stoichiometry N in the assay with SMYD2-F184A (human) [2] of 1.
